From PMC6449189
Where two headings read alike, the source gives them in different places.

Tests used:
Assay in all cases: EMSA
LbCas12a [1] = biological target: T1, LbCas12a (Lachnospiraceae bacterium ND2006, UniProt A0A5S8WF58 1-1228)
LbCas12a [2] = biological target: T1, LbCas12a; remark: listed apart in the source
LbCas12a [3] = biological target: T1, LbCas12a; remark: listed apart in the source
LbCas12a [4] = biological target: T1, LbCas12a; remark: listed apart in the source

B1: LbCas12a crRNA (24-nt T1) rGJK_007 (structured_RNA)
RNA: AAUUUCUACUAAGUGUAGAUAAAGUGCUCAUCAUUGGAAAACGU
Kd (LbCas12a [1]): 35.8 ± 4.4 nM
Kd (LbCas12a [2]): 16.4 ± 2.1 nM
Kd (LbCas12a [3]): 38.9 ± 4.7 nM
Kd (LbCas12a [4]): 17.6 ± 2.4 nM
